Each block holds one binder with its values, some of them ahead of it.
Experiments:
[1] = molecular target: T1, human IL1RAP on cells (KU812, LAMA-84, HEK-Blue IL-33/IL-1β cells) (human, UniProt Q9NPH3 21-570); assay: cell-based or functional assay
T1 sequence (looked up): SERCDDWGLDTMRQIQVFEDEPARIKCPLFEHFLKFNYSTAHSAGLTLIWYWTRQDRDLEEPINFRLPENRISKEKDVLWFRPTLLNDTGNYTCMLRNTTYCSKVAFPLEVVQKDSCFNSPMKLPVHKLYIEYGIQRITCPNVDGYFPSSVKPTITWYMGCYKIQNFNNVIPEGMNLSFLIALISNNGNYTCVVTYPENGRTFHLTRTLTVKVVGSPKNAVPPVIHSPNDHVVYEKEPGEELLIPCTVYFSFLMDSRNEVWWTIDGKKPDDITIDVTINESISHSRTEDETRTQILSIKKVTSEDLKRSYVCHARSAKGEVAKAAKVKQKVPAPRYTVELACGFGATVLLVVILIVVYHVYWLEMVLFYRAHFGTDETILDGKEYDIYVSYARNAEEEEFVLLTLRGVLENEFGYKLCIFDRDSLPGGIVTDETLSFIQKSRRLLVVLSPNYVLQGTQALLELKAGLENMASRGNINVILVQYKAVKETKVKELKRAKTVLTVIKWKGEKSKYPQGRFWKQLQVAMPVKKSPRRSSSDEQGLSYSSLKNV

[2] = molecular target: T1, human IL1RAP on cells (KU812, LAMA-84, …); assay: cell-based or functional assay; remark: listed apart in the source
[3] = molecular target: T2, IL1RAP protein (analyte of the Biacore study, Example A(i)) (human, UniProt Q9NPH3 21-367, limits assumed); assay: SPR, BIAcore T200, antibody captured by anti-mouse IgG, analyte 100 nM, 25 C
T2 construct: also called the analyte; human IL1RAP
T2 sequence (looked up): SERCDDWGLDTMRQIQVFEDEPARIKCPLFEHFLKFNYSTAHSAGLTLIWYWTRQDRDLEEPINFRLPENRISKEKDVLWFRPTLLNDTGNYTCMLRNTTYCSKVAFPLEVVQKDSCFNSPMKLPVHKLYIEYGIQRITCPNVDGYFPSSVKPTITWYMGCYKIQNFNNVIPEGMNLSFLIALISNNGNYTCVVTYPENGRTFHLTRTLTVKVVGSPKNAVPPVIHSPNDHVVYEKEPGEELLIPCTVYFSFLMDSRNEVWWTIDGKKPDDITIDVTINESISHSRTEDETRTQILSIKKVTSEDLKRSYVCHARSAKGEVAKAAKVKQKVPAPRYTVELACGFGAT
Experimental: Goat anti-mouse IgG was immobilized on a CM5 chip according to the technical manual of capture kit and standard operation principle of BIAcore T200 (Biacore Life Sciences, GE Healthcare Europe GmbH, Uppsala, Sweden).
The capture molecule surface was regenerated after each binding cycle using the manufacturer's recommended conditions.
After five cycles of start-up, each antibody (100 nM) was injected at a flow rate of 30 μl/min, for 120 s, at the start of the cycle; then the analyte (100 nM) was injected at a flow rate of 30 μl/min, for 120 s, followed by monitoring the dissociation phase for 300 s.

EC50, human IL-1α-stimulated HEK-Blue IL-33/IL-1β cells [1]: 37.6 nM
EC50, human IL-1β-stimulated HEK-Blue IL-33/IL-1β cells [1]: 10.5 nM
EC50, human IL-33-stimulated HEK-Blue IL-33/IL-1β cells [1]: 30.5 nM
IC50, human IL-1α-stimulated HEK-Blue IL-33/IL-1β cells [1]: 37.3 nM
IC50, human IL-1β-stimulated HEK-Blue IL-33/IL-1β cells [1]: 10.1 nM
IC50, human IL-33-stimulated HEK-Blue IL-33/IL-1β cells [1]: 30.4 nM
EC50, murine IL-1 alpha-stimulated HEK-Blue IL-33/IL-1β cells [2]: 2.9 nM
EC50, murine IL-1 beta-stimulated HEK-Blue IL-33/IL-1β cells [2]: 1.56 nM
EC50, murine IL-33-stimulated HEK-Blue IL-33/IL-1β cells [2]: 4.01 nM
IC50, murine IL-1 alpha-stimulated HEK-Blue IL-33/IL-1β cells [2]: 5 nM
IC50, murine IL-1 beta-stimulated HEK-Blue IL-33/IL-1β cells [2]: 1.59 nM
IC50, murine IL-33-stimulated HEK-Blue IL-33/IL-1β cells [2]: 4.12 nM
Kd [3]: 0.321 nM
koff [3]: 7.25e-05 s⁻¹
kon [3]: 226000 M⁻¹ s⁻¹
B1: CAN03 (antibody, V domains shown)
VH: DVKLVESGGGLVKPGGSLKLSCAASGFTFSIYTMSWVRQTPEKRLEWVATISIGGSYINYPDSVKGRFTISRDNAKNTLYLQMSSLKSEDTAIYYCSREVDGSYAMDYWGQGTSVTVSS
VL: DILLTQSPAILSVSPGERVSFSCRASQSIGTSIHWYQRRTNGSPRLLIKSASESISGIPSRFSGSGSGTDFTLSINSVESEDIADYYCQQSNSWPTTFGAGTKLELKR
notes: Murine-derived monoclonal anti-IL1RAP antibody; also called CAN03-AF488 (AlexaFluor488-labelled form)

EC50, murine IL-1 alpha-stimulated HEK-Blue IL-33/IL-1β cells [2]: 84.2 nM
EC50, murine IL-1 beta-stimulated HEK-Blue IL-33/IL-1β cells [2]: > 100 nM
EC50, murine IL-33-stimulated HEK-Blue IL-33/IL-1β cells [2]: > 100 nM
IC50, murine IL-1 alpha-stimulated HEK-Blue IL-33/IL-1β cells [2]: 81.7 nM
IC50, murine IL-1 beta-stimulated HEK-Blue IL-33/IL-1β cells [2]: 50 nM
IC50, murine IL-33-stimulated HEK-Blue IL-33/IL-1β cells [2]: > 100 nM
Kd [3]: 1.43 nM
koff [3]: 0.000335 s⁻¹
kon [3]: 234000 M⁻¹ s⁻¹
B2: CAN01 (antibody, V domains shown)
VH: QVQLQQSGTELMKPGASVKISCKATGYTVSSYWIDWVKQTPGHGLEWIGEILPGSAINNYNEKFKGKATFTADTSSNTAYMQLSSLTSEDSAVYYCASGDYFDSTFVYYWGQGTTLTVSS
VL: DVLMTQTPLSLPVSLGDQASISCRSSQSIVHSNGNTYLEWYLQKPGQSPKLLIYKVSNRFSGVPDRFSGSGSGTDFTLKISRVEAEDLGVYYCFQGSHVPRTFGGGTKLEIKR
notes: Murine-derived monoclonal anti-IL1RAP antibody; also called CAN01-AF488 (AlexaFluor488-labelled form)

From US20180355049A1 (CANTARGIA, published 2018)
